B1: SAD10320_P02_E05 (antibody, V domains shown)
VH: QVQLVQSGAEVKKPGASVKVSCKASGFNIKDYYMHWVRQAPGQRLEWMGWIDLENANTIYDAKFQGRVTITRDTSASTAYMELSSLRSEDTAVYYCARDMHGRYFYDVWGQGTLVTVSS
VL: DIVMTQSPDSLAVSLGERATINCKSSQSLLNARTGKNYLAWYQQKPGQPPKLLIYWASTRESGVPDRFSGSGSGTDFTLTISSLQAEDVAVYYCKQSEHRRTFGGGTKVEIK
B2: SAD10320_P02_A06 (antibody, V domains shown)
VH: QVQLVQSGAEVKKPGASVKVSCKASGFNIKDYYMHWVRQAPGQRLPWMGWIDLENANTIYDAKFQGRVTITRDTSASTAYMELSSLRSEDTAVYYCARDAHERYFYDVWGQGTLVTVSS
VL: DIVMTQSPDSLAVSLGERATINCKSSQSLLNARTGKNYLAWYQQKPGQPPKLLIYWASTRESGVPDRFSGSGSGTDFTLTISSLQAEDVAVYYCKQSHLRRTFGGGTKVEIK
B3: SAD10320_P02_D06 (antibody, V domains shown)
VH: QVQLVQSGAEVKKPGASVKVSCKASGFNIKDYYMHWVRQAPGQRPAWMGWIDLENANTIYDAKFQGRVTITRDTSASTAYMELSSLRSEDTAVYYCARDAYGHGFYDVWGQGTLVTVSS
VL: DIVMTQSPDSLAVSLGERATINCKSSQSLLNARTGKNYLAWYQQKPGQPPKLLIYWASTRESGVPDRFSGSGSGTDFTLTISSLQAEDVAVYYCKQSYGHRTFGGGTKVEIK
B4: SAD10320_P02_H06 (antibody, V domains shown)
VH: QVQLVQSGAEVKKPGASVKVSCKASGFNIKDYYMHWVRQAPGQRLEWMGWIDLENANTIYDAKFQGRVTITRDTSASTAYMELSSLRSEDTAVYYCARDAYGRNHYDVWGQGTLVTVSS
VL: DIVMTQSPDSLAVSLGERATINCKSSQSLLNARTGKSYLAWYQQKPGQPPKLLIYWASTRESGVPDRFSGSGSGTDFTLTISSLQAEDVAVYYCKQSYVHRTFGGGTKVEIK
B5: SAD10320_P03_E07 (antibody, V domains shown)
VH: QVQLVQSGAEVKKPGASVKVSCKASGFNIKDYYMHWVRQAPGQRLEWMGWIDLENANTIYDAKFQGRVTITRDTSASTAYMELSSLRSEDTAVYYCARDAVHRYFYDVWGQGTLVTVSS
VL: DIVMTQSPDSLAVSLGERATINCKSSQSLLNARTGKNYLAWYQQKPGQPPKLLIYWASTRESGVPDRFSGSGSGTDFTLTISSLQAEDVAVYYCKQSYHPRTFGGGTKVEIK
B6: SAD10320_P03_C08 (antibody, V domains shown)
VH: QVQLVQSGAEVKKPGASVKVSCEASGFNIKDYYMHWVRQAPGQTLAWMGWIDLENANTIYDAKFQGRVTITRDTSASTAYMELSSLRSEDTAVYYCARDAYGHVFYDVWGQGTLVTVSS
VL: DIVMTQSPDSLAVSLGERATINCKSSQSLLNARTGKNYLAWYQQKPGQPPKLLIYWASTRESGVPDRFSGSGSGTDFTLTISSLQAEDVAVYYCKQSYLHRTFGGGTKVEIK
B7: SAD10320_P03_D08 (antibody, V domains shown)
VH: QVQLVQSGAEVKKPGASVKVSCKASGFNIKDYYMHWVRQAPGQRLEWMGWIDLENANTIYDAKFQGRVTITRDTSASTAYMELSSLRSEDTAVYYCARDAYGHQFYDVWGQGTLVTVSS
VL: DIVMTQSPDSLAVSLGERATINCKSSQSLLNARTGKNYLAWYQQKPGQPPKLLIYWASTRESGVPDRFSGSGSGTDFTLTISSLQAEDVAVYYCKQSYHTRTFGGGTKVEIK
B8: SAD10320_P03_F08 (antibody, V domains shown)
VH: QVQLVQSGAEVKKPGASVKVSCKASGFNIKDYYMHWVRQAPGQRLEWMGWIDLENANTIYDAKFQGRVTITRDTSASTAYMELSSLRSEDTAVYYCARDAYGHDFYDVWGQGTLVTVSS
VL: DIVMTQSPDSLAVSLGERATINCKSSQSLLNARPGKNYLAWYQQKPGQPPKLLIYWASTRESGVPDRFSGSGSGTDFTLTISSLQAEDVAVYYCKQSYSRRTFGGGTKVEIK
B9: SAD10320_P03_H08 (antibody, V domains shown)
VH: QVQLVQSGAEVKKPGASVKVSCKASGFNIKDYYMHWVRQAPGQRLEWMGWIDLENANTIYDAKFQGRVTITRDTSASTAYMELSSLRSEDTAVYYCARDAYGHVFYDVWGQGTLVTVSS
VL: DIVMTQSPDSLAVSLGERATINCKSSQSLLNASTAKNYLAWYQQKPGQPPKLLIYWASTRESGVPDRFSGSGSGTDFTLTISSLQAEDVAVYYCKQSYRHRTFGGGTKVEIK
B10: SAD10320_P03_A09 (antibody, V domains shown)
VH: QVQLVQSGAEVKKPGASVKVSCKASGFNIKDYYMHWVRQAPGQRLEWMGWIDLENANTIYDAKFQGRVTITRDTSASTAYMELSSLRSEDTAVYYCARDAYGHVFYDVWGQGTLVTVSS
VL: DIVMTQSPDSLAVSLGERATINCKSSQSLLNARTGKNYLAWYQQKPGQPPKLLIYWASTRESGVPDRFSGSGSGTDFTLTISSLQAEDVAVYYCKQSSHRRTFGGGTKVEIK
B11: SAD10320_P03_C09 (antibody, V domains shown)
VH: QVQLVQSGAEVKKPGASVKVSCEASGFNIKDYYMHWVRQAPGQRLEWMGWIDLENANTIYDAKFQGRVTITRDTSASTAYMELSSLRSEDTAVYYCARDAYGHVFYDVWGQGTLVTVSS
VL: DIVMTQSPDSLAVSLGERATINCKSSQSLLNARTGKNYLAWYQQKPGQPPKLLIYWASTRESGVPDRFSGSGSGTDFTLTISSLQAEDVAVYYCKQSYLHRTFGGGTKVEIK
B12: SAD10320_P03_F09 (antibody, V domains shown)
VH: QVQLVQSGAEVKKPGASVKVSCKASGFNIKDYYMHWVRQAPGQRLEWMGWIDLENANTIYDAKFQGRVTITRDTSASTAYMELSSLRSEDTAVYYCARDAYGHDFYDVWGQGTLVTVSS
VL: DIVMTQSPDSLAVSLGERATINCKSSQSLLNARTGKNYLAWYQQKPGQPPKLLIYWASTRESGVPDRFSGSGSGTDFTLTISSLQAEDVAVYYCKQSYHRRTFGGGTKVEIK
B13: SAD10320_P04_C10 (antibody, V domains shown)
VH: QVQLVQSGAEVKKPGASVKVSCKASGFNIKDYYMHWVRQAPGQRLEWMGWIDLENANTIYDAKFQGRVTITRDTSASTAYMELSSLRSEDTAVYYCARDAYGHAFYDVWGQGTLVTVSS
VL: DIVMTQSPDSLAVSLGERATINCKSSQSLLNARTGKNYLAWYQQKPGQPPKLLIYWASTRESGVPDRFSGSGSGTDFTLTISSLQAEDVAVYYCKQSYHQRTFGGGTKVEIK
B14: SAD10320_P04_F10 (antibody, V domains shown)
VH: QVQLVQSGAEVKKPGASVKVSCKASGFNIKDYYMHWVRQAPGQTLDWMGWIDLENANTIYDAKFQGRVTITRDTSASTAYMELSSLRSEDTAVYYCARDAYGRNHYDVWGQGTLVTVSS
VL: DIVMTQSPDSLAVSLGERATINCKSSQSLLNARPGKNYLAWYQQKPGQPPKLLIYWASTRESGVPDRFSGSGSGTDFTLTISSLQAEDVAVYYCKQSYLHRTFGGGTKVEIK
B15: SAD10320_P04_A11 (antibody, V domains shown)
VH: QVQLVQSGAEVKKPGASVKVSCKASGFNIKDYYMHWVRQAPGQRLQWMGWIDLENANTIYDAKFQGRVTITRDTSASTAYMELSSLRSEDTAVYYCARDARHRYFYDVWGQGTLVTVSS
VL: DIVMTQSPDSLAVSLGERATINCKSSQSLLNARTGKNYLAWYQQKPGQPPKLLIYWASTRESGVPDRFSGSGSGTDFTLTISSLQAEDVAVYYCKQSYSHGTFGGGTKVEIK
B16: SAD10320_P04_D11 (antibody, V domains shown)
VH: QVQLVQSGAEVKKPGASVKVSCKASGFNIKDYYMHWVRQAPGQRLQWMGWIDLENANTIYDAKFQGRVTITRDTSASTAYMELSSLRSEDTAVYYCARDAYGHVFYDVWGQGTLVTVSS
VL: DIVMTQSPDSLAVSLGERATINCKSSQSLLNARTGKNYLAWYQQKPGQPPKLLIYWASTRESGVPDRFSGSGSGTDFTLTISSLQAEDVAVYYCKQSYHHRTFGGGTKVEIK
B17: SAD10320_P04_E11 (antibody, V domains shown)
VH: QVQLVQSGAEVKKPGASVKVSCKASGFNIKDYYMHWVRQAPGQRLEWMGWIDLENANTIYDAKFQGRVTITRDTSASTAYMELSSLRSEDTAVYYCARDAYGHDFYDVWGQGTLVTVSS
VL: DIVMTQSPDSLAVSLGERATINCKSSQSLLNARTGKNYLAWYQQKPGQPPKLLIYWASTRESGVPDRFSGSGSGTDFTLTISSLQAEDVAVYYCKQSYGHRTFGGGTKVEIK
B18: SAD10320_P04_F11 (antibody, V domains shown)
VH: QVQLVQSGAEVKKPGASVKVSCKASGFNIKDYYMHWVRQAPGQRLEWMGWIDLENANTIYDAKFQGRVTITRDTSASTAYMELSSLRSEDTAVYYCARDAYGHEFYDVWGQGTLVTVSS
VL: DIVMTQSPDSLAVSLGERATINCKSSQSLLNARTGKNYLAWYQQKPGQPPKLLIYWASTRESGVPDRFSGSGSGTDFTLTISSLQAEDVAVYYCKQGHSRRTFGGGTKVEIK
B19: SAD10320_P04_G11 (antibody, V domains shown)
VH: QVQLVQSGAEVKKPGASVKVSCKASGFNIKDYYMHWVRQAPGQRLEWMGWIDLENANTIYDAKFQGRVTITRDTSASTAYMELSSLRSEDTAVYYCARDAYRHEFYDVWGQGTLVTVSS
VL: DIVMTQSPDSLAVSLGERATINCKSSQSLLNARTGKNYLAWYQQKPGQPPKLLIYWASTRESGVPDRFSGSGSGTDFTLTISSLQAEDVAVYYCKQSYYHRTFGGGTKVEIK
B20: SAD10320_P04_A12 (antibody, V domains shown)
VH: QVQLVQSGAEVKKPGASVKVSCKASGFNIKDYYMHWVRQAPGQRLEWMGWIDLENANTIYDAKFQGRVTITRDTSASTAYMELSSLRSEDTAVYYCARDAYGHVFYDVWGQGTLVTVSS
VL: DIVMTQSPDSLAVSLGERATINCKSSQSLLNARTGKNYLAWYQQKPGQPPKLLIYWASTRESGVPDRFSGSGSGTDFTLTISSLQAEDVAVYYCKQSYHHRTFGGGTKVEIK
B21: SAD10320_P04_D12 (antibody, V domains shown)
VH: QVQLVQSGAEVKKPGASVKVSCKASGFNIKDYYMHWVRQAPGQRLEWMGWIDLENANTIYDAKFQGRVTITRDTSASTAYMELSSLRSEDTAVYYCARDAYGHDFYDVWGQGTLVTVSS
VL: DIVMTQSPDSLAVSLGERATINCKSSQSLLNARTGKNYLAWYQQKPGQPPKLLIYWASTRESGVPDRFSGSGSGTDFTLTISSLQAEDVAVYYCKQSYSHRTFGGGTKVEIK

molecular target: cynomolgus CD3εδ Fc heterodimer (Cy CD3ε Fc / CD3δ Fc-HIS) (cynomolgus) (UniProt Q95LI8); experiment: BLI (ForteBio), pH 6.0
Sequence (chain, as listed by the source mutant, chain 1 of 2): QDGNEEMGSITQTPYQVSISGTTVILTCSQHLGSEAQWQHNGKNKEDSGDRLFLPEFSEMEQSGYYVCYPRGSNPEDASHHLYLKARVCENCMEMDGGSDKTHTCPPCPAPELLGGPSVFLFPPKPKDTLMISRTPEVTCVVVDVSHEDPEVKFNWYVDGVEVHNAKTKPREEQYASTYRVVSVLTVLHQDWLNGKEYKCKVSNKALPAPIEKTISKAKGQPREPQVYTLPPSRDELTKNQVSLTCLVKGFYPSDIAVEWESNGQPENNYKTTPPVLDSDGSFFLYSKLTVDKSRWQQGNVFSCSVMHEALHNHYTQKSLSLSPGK
Sequence (Q95LI8 22-100, stated change not applied, chain 2 of 2): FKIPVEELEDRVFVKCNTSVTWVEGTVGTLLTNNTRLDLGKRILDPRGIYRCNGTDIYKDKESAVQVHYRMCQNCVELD

B1 and B2 are within 1.5-fold of each other in Kd: 14.5 nM for the first, 11.6 nM for the second.

Compared with B3, B4 is 2.2-fold lower in Kd: 23.4 nM for the first, 10.5 nM for the second. The second binds more tightly here.

Compared with B5, B6 is 9.6-fold higher in Kd: 33.8 nM for the first, 323 nM for the second.

Compared with B7, B8 is 1.9-fold higher in Kd: 7.76 nM for the first, 15 nM for the second.

First: B9
Second: B10
The Kd of the first is 12-fold higher: 181 nM for the first, 14.6 nM for the second. The second binds more tightly here.

B11 and B12 are within 1.5-fold of each other in Kd: 31.6 nM for the first, 37 nM for the second.

Compared with B13, B14 is 20-fold lower in Kd: 168 nM for the first, 8.51 nM for the second. The second binds more tightly here.

Going from B15 to B16, the Kd falls from 29.4 nM to 16.9 nM (1.7-fold). The second binds more tightly here.

Compared with B17, B18 is 2.1-fold lower in Kd: 20.1 nM for the first, 9.55 nM for the second. The second binds more tightly here.

First: B19
Second: B20
The Kd of the first is 15-fold lower: 15.7 nM for the first, 240 nM for the second.

In the case of B21, the Kd is reported as 13.9 nM.

B1 and B2 are within 1.5-fold of each other in kon: 219000 M⁻¹ s⁻¹ for the first, 228000 M⁻¹ s⁻¹ for the second.

B3 and B4 are within 1.5-fold of each other in kon: 265000 M⁻¹ s⁻¹ for the first, 268000 M⁻¹ s⁻¹ for the second.

Compared with B5, B6 is 4.4-fold lower in kon: 207000 M⁻¹ s⁻¹ for the first, 46900 M⁻¹ s⁻¹ for the second.

B7 and B8 are within 1.5-fold of each other in kon: 249000 M⁻¹ s⁻¹ for the first, 179000 M⁻¹ s⁻¹ for the second.

Going from B9 to B10, the kon rises from 82700 M⁻¹ s⁻¹ to 199000 M⁻¹ s⁻¹ (2.4-fold).

B11 and B12 are within 1.5-fold of each other in kon: 161000 M⁻¹ s⁻¹ for the first, 195000 M⁻¹ s⁻¹ for the second.

First: B13
Second: B14
The kon of the first is 2.5-fold lower: 111000 M⁻¹ s⁻¹ for the first, 281000 M⁻¹ s⁻¹ for the second.

B15 and B16 are within 1.5-fold of each other in kon: 252000 M⁻¹ s⁻¹ for the first, 200000 M⁻¹ s⁻¹ for the second.

B17 and B18 are within 1.5-fold of each other in kon: 148000 M⁻¹ s⁻¹ for the first, 201000 M⁻¹ s⁻¹ for the second.

First: B19
Second: B20
The kon of the first is 2.5-fold higher: 176000 M⁻¹ s⁻¹ for the first, 69700 M⁻¹ s⁻¹ for the second.

With B21 the kon was 186000 M⁻¹ s⁻¹.

Source: patent publication US20220380463A1
